According to patent US20190322765A1:

Columns and labels:
[1] = molecular target: murine IL-2R α-subunit, recombinant monomeric (murine) (UniProt P01590); assay: SPR, against the human IL-2R α-subunit as reference
[2] = molecular target: murine IL-2R βγ heterodimer (β knob γ hole Fc fusion) (murine) (UniProt P16297); assay: SPR, against the human IL-2R βγ heterodimer as reference
[3] = molecular target: IL-2R βγ heterodimer on human cells (NK92 cells, NK and T cells of PBMC) (human) (UniProt P14784); assay: cell-based or functional assay
Chain of IL-2R βγ heterodimer on human cells (NK92 cells, NK and T cells of PBMC) (human) (P14784 27-551, chain 1 of 2): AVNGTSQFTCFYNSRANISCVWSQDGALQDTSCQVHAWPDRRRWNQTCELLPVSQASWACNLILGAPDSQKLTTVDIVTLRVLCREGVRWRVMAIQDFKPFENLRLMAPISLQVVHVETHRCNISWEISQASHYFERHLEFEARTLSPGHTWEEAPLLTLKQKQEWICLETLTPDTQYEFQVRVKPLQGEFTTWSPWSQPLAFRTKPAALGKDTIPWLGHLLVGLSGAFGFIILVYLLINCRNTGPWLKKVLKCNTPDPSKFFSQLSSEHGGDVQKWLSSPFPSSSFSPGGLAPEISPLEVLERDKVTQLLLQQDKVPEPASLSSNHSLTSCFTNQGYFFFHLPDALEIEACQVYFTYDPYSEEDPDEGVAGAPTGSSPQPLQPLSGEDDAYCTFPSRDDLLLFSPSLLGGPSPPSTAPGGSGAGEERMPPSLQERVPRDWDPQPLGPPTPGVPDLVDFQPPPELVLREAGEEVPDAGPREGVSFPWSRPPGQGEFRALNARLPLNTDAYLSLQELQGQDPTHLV
Chain of IL-2R βγ heterodimer on human cells (NK92 cells, NK and T cells of PBMC) (human) (P31785 23-369, chain 2 of 2, further chain): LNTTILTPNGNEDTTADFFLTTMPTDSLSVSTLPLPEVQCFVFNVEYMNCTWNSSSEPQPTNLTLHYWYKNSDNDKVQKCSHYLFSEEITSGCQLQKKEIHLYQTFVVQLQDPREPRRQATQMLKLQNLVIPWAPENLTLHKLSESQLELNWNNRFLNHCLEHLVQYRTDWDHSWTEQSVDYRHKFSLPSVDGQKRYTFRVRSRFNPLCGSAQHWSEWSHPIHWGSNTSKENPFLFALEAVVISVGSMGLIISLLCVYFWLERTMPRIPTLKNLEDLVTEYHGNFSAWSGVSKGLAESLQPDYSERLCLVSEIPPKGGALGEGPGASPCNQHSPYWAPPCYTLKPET

Chain of murine IL-2R α-subunit, recombinant monomeric (murine) (P01590 22-236 limits assumed): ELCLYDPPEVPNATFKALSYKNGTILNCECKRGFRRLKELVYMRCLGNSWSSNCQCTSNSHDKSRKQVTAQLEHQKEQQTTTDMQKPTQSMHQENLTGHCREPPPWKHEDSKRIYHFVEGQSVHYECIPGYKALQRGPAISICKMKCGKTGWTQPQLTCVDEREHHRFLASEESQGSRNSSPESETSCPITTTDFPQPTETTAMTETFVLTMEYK
Chain of murine IL-2R βγ heterodimer (β knob γ hole Fc fusion) (murine) (P16297 27-240, chain 1 of 2): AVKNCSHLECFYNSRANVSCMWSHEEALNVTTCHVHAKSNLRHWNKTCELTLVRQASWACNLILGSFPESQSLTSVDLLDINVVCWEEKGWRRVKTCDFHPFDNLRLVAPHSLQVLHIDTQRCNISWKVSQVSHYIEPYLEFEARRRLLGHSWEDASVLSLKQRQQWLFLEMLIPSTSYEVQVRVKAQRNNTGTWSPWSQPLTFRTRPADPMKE
Chain of murine IL-2R βγ heterodimer (β knob γ hole Fc fusion) (murine) (P34902 23-263, chain 2 of 2, further chain): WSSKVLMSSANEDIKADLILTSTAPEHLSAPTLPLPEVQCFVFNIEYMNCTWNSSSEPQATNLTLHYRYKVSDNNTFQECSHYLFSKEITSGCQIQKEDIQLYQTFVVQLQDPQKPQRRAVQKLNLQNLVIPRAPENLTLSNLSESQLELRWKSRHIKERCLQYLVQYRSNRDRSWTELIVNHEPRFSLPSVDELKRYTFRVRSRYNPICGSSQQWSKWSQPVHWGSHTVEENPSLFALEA

fold lower affinity than for the human receptor [1] | fold lower affinity than for the human receptor [2] | EC50 of IFN-γ release by NK92 cells [3] | EC50 of STAT5 phosphorylation, CD8+ T cells [3] | EC50 of STAT5 phosphorylation, NK cells [3] | Substance
10 fold | 10 fold | – | – | – | human IL-2
– | – | 4.1 nM | 1.07 nM | 0.222 nM | Proleukin (Novartis/Chiron), commercially available wild-type IL-2 (from UniProt P60568 22-153) (ligand)
